These results are taken from patent US20230340128A1 (Xencor, published 2023).

For orientation: Kd means a measure of binding affinity in units of concentration. Low values mean a tighter complex, high ones a looser complex. The koff is a measure of how fast the partners let go of each other. The kon is the second-order rate constant of association. High values mean faster complex formation, low ones slower complex formation.

The target of experiment [1] is T1, human mesothelin (MSLN) (human, UniProt Q13421 296-580, limits assumed).
T1 construct: Antigen of the Octet KD values
Nature of the experiment: BLI (Octet), bsAb in 1+1 Fab-scFv-Fc format. (BLI is a label-free optical method that tracks binding on a fibre tip over time.)

The target in experiment [2] is T1, human mesothelin (MSLN). The experiment in a line: KD quoted in the FIG. 25 legend; Octet (BLI) per FIGS. 20-21.
Another experiment has as its target T2, human CD28 (human, UniProt P10747 19-152, limits assumed).
T2 construct: also called Cluster of Differentiation 28; Tp44
Nature of the experiment: label in the legend box: nominal affinity of the CD28 binding domain (paragraph 422 calls such label values KD); method not stated on the sheet.

The target of experiment [3] is T1, human mesothelin (MSLN). Nature of the experiment: label in the legend box: nominal affinity of the MSLN binding domain (paragraph 422 calls such label values KD); method not stated on the sheet.

B1: XENP32563 (bispecific antibody)
chain 1: QVQLVQSGAEVKKPGASVKVSCKASGYTFTSYWMHWVRQAPGQGLEWMGMIHPNSDNTIYYEKFQGRVTMTVDKSISTAYMELSRLRSDDTAVYYCAIIITPVVPKFDYWGQGTLVTVSSASTKGPSVFPLAPSSKSTSGGTAALGCLVKDYFPEPVTVSWNSGALTSGVHTFPAVLQSSGLYSLSSVVTVPSSSLGTQTYICNVNHKPSDTKVDKKVEPKSCDKTHTCPPCPAPPVAGPSVFLFPPKPKDTLMISRTPEVTCVVVDVKHEDPEVKFNWYVDGVEVHNAKTKPREEEYNSTYRVVSVLTVLHQDWLNGKEYKCKVSNKALPAPIEKTISKAKGQPREPQVYTLPPSREEMTKNQVSLTCDVSGFYPSDIAVEWESDGQPENNYKTTPPVLDSDGSFFLYSKLTVDKSRWEQGDVFSCSVMHEALHNHYTQKSLSLSPGK
chain 2: not shown
chain 3: DIVMTQSPDSLAVSLGERATINCKASHDVGTYVAWYQQKPGQSPKLLIYWASTRHTGVPDRFTGSGSGTDFTLTISSLQAEDVAVYFCQQYSSYPLTFGAGTKLEIKRTVAAPSVFIFPPSDEQLKSGTASVVCLLNNFYPREAKVQWKVDNALQSGNSQESVTEQDSKDSTYSLSSTLTLSKADYEKHKVYACEVTHQGLSSPVTKSFNRGEC
For the molecule B1, in the experiment with human mesothelin (MSLN) [1], binding was characterised by a dissociation constant (Kd) of 12.8 nM, the Response amounted to 0.898, the koff is 0.00672 s⁻¹ and the kon amounted to 527000 M⁻¹ s⁻¹. For the same molecule, the dissociation constant Kd with human mesothelin (MSLN) [2] was around 12.8 nM.

B2: XENP44477 (bispecific antibody)
heavy: QVQLVQSGAEVKKPGASVKVSCKASGYTFTSYWMHWVRQAPGQGLEWMGWIHPNSDNTIYYEKFQGRVTMTVDKSISTAYMELSRLRSDDTAVYYCAIIITPVVPKFDYWGQGTLVTVSSASTKGPSVFPLAPSSKSTSGGTAALGCLVKDYFPEPVTVSWNSGALTSGVHTFPAVLQSSGLYSLSSVVTVPSSSLGTQTYICNVNHKPSDTKVDKKVEPKSCGGGGSGGGGSQVQLVQSGAEVKKPGASVKVSCKASGYTFTSYWMHWVRQAPGQGLEWMGWIHPNSDNTIYYEKFQGRVTMTVDKSISTAYMELSRLRSDDTAVYYCAIIITPVVPKFDYWGQGTLVTVSSASTKGPSVFPLAPSSKSTSGGTAALGCLVKDYFPEPVTVSWNSGALTSGVHTFPAVLQSSGLYSLSSVVTVPSSSLGTQTYICNVNHKPSDTKVDKKVEPKSCDKTHTCPPCPAPPVAGPSVFLFPPKPKDTLMISRTPEVTCVVVDVKHEDPEVKFNWYVDGVEVHNAKTKPREEEYNSTYRVVSVLTVLHQDWLNGKEYKCKVSNKALPAPIEKTISKAKGQPREPQVYTLPPSREEMTKNQVSLTCDVSGFYPSDIAVEWESDGQPENNYKTTPPVLDSDGSFFLYSKLTVDKSRWEQGDVFSCSVLHEALHSHYTQKSLSLSPGK
scFv-Fc: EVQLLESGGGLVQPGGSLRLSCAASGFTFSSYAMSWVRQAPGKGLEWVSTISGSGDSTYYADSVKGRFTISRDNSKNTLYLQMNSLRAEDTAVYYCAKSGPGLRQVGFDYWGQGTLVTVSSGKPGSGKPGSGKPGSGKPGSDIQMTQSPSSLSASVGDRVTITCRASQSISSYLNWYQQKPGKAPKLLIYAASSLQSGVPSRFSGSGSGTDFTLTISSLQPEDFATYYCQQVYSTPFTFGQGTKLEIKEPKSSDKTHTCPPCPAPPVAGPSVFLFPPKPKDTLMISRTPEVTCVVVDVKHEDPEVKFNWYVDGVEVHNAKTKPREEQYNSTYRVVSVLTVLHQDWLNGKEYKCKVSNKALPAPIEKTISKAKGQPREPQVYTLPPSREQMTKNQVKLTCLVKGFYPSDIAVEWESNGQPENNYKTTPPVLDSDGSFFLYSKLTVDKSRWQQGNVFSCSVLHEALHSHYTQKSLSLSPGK
light 1: DIVMTQSPDSLAVSLGERATINCKASHDVGTSVAWYQQKPGQSPKLLIYWASTRHTGVPDRFTGSGSGTDFTLTISSLQAEDVAVYFCQQYSSYPLTFGAGTKLEIKRTVAAPSVFIFPPSDEQLKSGTASVVCLLNNFYPREAKVQWKVDNALQSGNSQESVTEQDSKDSTYSLSSTLTLSKADYEKHKVYACEVTHQGLSSPVTKSFNRGEC
light 2: DIVMTQSPDSLAVSLGERATINCKASHDVGTSVAWYQQKPGQSPKLLIYWASTRHTGVPDRFTGSGSGTDFTLTISSLQAEDVAVYFCQQYSSYPLTFGAGTKLEIKRTVAAPSVFIFPPSDEQLKSGTASVVCLLNNFYPREAKVQWKVDNALQSGNSQESVTEQDSKDSTYSLSSTLTLSKADYEKHKVYACEVTHQGLSSPVTKSFNRGEC
notes: also called XENP44477 MSLN (9 nM) x CD28 (180 nM) 2+1 Fab2-Fc x scFv-Fc
Regarding B2, the Kd with human CD28 is 180 nM; with human mesothelin (MSLN) [3] it was 9 nM.

B3: XENP32948 (bispecific antibody)
chain 1: QVQLVQSGAEVKKPGASVKVSCKASGYTFTSYWMHWVRQAPGQGLEWMGMIHPNSDNTIYYQKFQGRVTMTVDKSISTAYMELSRLRSDDTAVYYCAIIITPVVPKFDYWGQGTLVTVSSASTKGPSVFPLAPSSKSTSGGTAALGCLVKDYFPEPVTVSWNSGALTSGVHTFPAVLQSSGLYSLSSVVTVPSSSLGTQTYICNVNHKPSDTKVDKKVEPKSCDKTHTCPPCPAPPVAGPSVFLFPPKPKDTLMISRTPEVTCVVVDVKHEDPEVKFNWYVDGVEVHNAKTKPREEEYNSTYRVVSVLTVLHQDWLNGKEYKCKVSNKALPAPIEKTISKAKGQPREPQVYTLPPSREEMTKNQVSLTCDVSGFYPSDIAVEWESDGQPENNYKTTPPVLDSDGSFFLYSKLTVDKSRWEQGDVFSCSVMHEALHNHYTQKSLSLSPGK
chain 2: QVQLVQSGAEVKKPGASVKVSCKASGYTFTSYWMHWVRQAPGQGLEWMGMIHPNSDNTIYYQKFQGRVTMTVDKSISTAYMELSRLRSDDTAVYYCAIIITPVVPKFDYWGQGTLVTVSSASTKGPSVFPLAPSSKSTSGGTAALGCLVKDYFPEPVTVSWNSGALTSGVHTFPAVLQSSGLYSLSSVVTVPSSSLGTQTYICNVNHKPSNTKVDKKVEPKSCGGGGSGGGGSQAVVTQEPSLTVSPGGTVTLTCGSSTGAVTTSNYANWVQQKPGKSPRGLIGGTNKRAPGVPARFSGSLLGGKAALTISGAQPEDEADYYCALWYSNHWVFGGGTKLTVLGKPGSGKPGSGKPGSGKPGSEVQLVESGGGLVQPGGSLRLSCAASGFTFSTYAMNWVRQAPGKGLEWVGRIRSKANNYATYYADSVKGRFTISRDDSKNTLYLQMNSLRAEDTAVYYCVRHGNFGDSYVSWFAYWGQGTLVTVSSGGGGSGGGGSKTHTCPPCPAPPVAGPSVFLFPPKPKDTLMISRTPEVTCVVVDVKHEDPEVKFNWYVDGVEVHNAKTKPREEQYNSTYRVVSVLTVLHQDWLNGKEYKCKVSNKALPAPIEKTISKAKGQPREPQVYTLPPSREQMTKNQVKLTCLVKGFYPSDIAVEWESNGQPENNYKTTPPVLDSDGSFFLYSKLTVDKSRWQQGNVFSCSVMHEALHNHYTQKSLSLSPGK
chain 3: DIVMTQSPDSLAVSLGERATINCKASHDVGTSVAWYQQKPGQSPKLLIYWASTRHTGVPDRFTGSGSGTDFTLTISSLQAEDVAVYFCQQYYSYPLTFGAGTKLEIKRTVAAPSVFIFPPSDEQLKSGTASVVCLLNNFYPREAKVQWKVDNALQSGNSQESVTEQDSKDSTYSLSSTLTLSKADYEKHKVYACEVTHQGLSSPVTKSFNRGEC
Take B3: the equilibrium dissociation constant (Kd) with human mesothelin (MSLN) [2] is 10.2 nM.

B4: XENP44471 (bispecific antibody)
heavy 1: QVQLVQSGAEVKKPGASVKVSCKASGYTFTSYWMHWVRQAPGQGLEWMGWIHPNSDNTIYYEKFQGRVTMTVDKSISTAYMELSRLRSDDTAVYYCAIIITPVVPKFDYWGQGTLVTVSSASTKGPSVFPLAPSSKSTSGGTAALGCLVKDYFPEPVTVSWNSGALTSGVHTFPAVLQSSGLYSLSSVVTVPSSSLGTQTYICNVNHKPSDTKVDKKVEPKSCDKTHTCPPCPAPPVAGPSVFLFPPKPKDTLMISRTPEVTCVVVDVKHEDPEVKFNWYVDGVEVHNAKTKPREEEYNSTYRVVSVLTVLHQDWLNGKEYKCKVSNKALPAPIEKTISKAKGQPREPQVYTLPPSREEMTKNQVSLTCDVSGFYPSDIAVEWESDGQPENNYKTTPPVLDSDGSFFLYSKLTVDKSRWEQGDVFSCSVLHEALHSHYTQKSLSLSPGK
heavy 2: not shown
light 1: DIVMTQSPDSLAVSLGERATINCKASHDVGTSVAWYQQKPGQSPKLLIYWASTRHTGVPDRFTGSGSGTDFTLTISSLQAEDVAVYFCQQYSSYPLTFGAGTKLEIKRTVAAPSVFIFPPSDEQLKSGTASVVCLLNNFYPREAKVQWKVDNALQSGNSQESVTEQDSKDSTYSLSSTLTLSKADYEKHKVYACEVTHQGLSSPVTKSFNRGEC
light 2: DIVMTQSPDSLAVSLGERATINCKASHDVGTSVAWYQQKPGQSPKLLIYWASTRHTGVPDRFTGSGSGTDFTLTISSLQAEDVAVYFCQQYSSYPLTFGAGTKLEIKRTVAAPSVFIFPPSDEQLKSGTASVVCLLNNFYPREAKVQWKVDNALQSGNSQESVTEQDSKDSTYSLSSTLTLSKADYEKHKVYACEVTHQGLSSPVTKSFNRGEC
notes: also called XENP44471 MSLN (9 nM) x CD28 (180 nM) 2+1 Fab2-scFv-Fc
As for B4, the Kd stood at 180 nM with human CD28 and 9 nM in the experiment with human mesothelin (MSLN) [3].

B5: XENP44473 (bispecific antibody)
heavy 1: QVQLVQSGAEVKKPGASVKVSCKASGYTFTSYWMHWVRQAPGQGLEWMGWIHPNSDNTIYYEKFQGRVTMTVDKSISTAYMELSRLRSDDTAVYYCAIIITPVVPKFDYWGQGTLVTVSSASTKGPSVFPLAPSSKSTSGGTAALGCLVKDYFPEPVTVSWNSGALTSGVHTFPAVLQSSGLYSLSSVVTVPSSSLGTQTYICNVNHKPSDTKVDKKVEPKSCDKTHTCPPCPAPPVAGPSVFLFPPKPKDTLMISRTPEVTCVVVDVKHEDPEVKFNWYVDGVEVHNAKTKPREEEYNSTYRVVSVLTVLHQDWLNGKEYKCKVSNKALPAPIEKTISKAKGQPREPQVYTLPPSREEMTKNQVSLTCDVSGFYPSDIAVEWESDGQPENNYKTTPPVLDSDGSFFLYSKLTVDKSRWEQGDVFSCSVLHEALHSHYTQKSLSLSPGK
heavy 2: not shown
light 1: DIVMTQSPDSLAVSLGERATINCKASHDVGQSVAWYQQKPGQSPKLLIYWASTRHTGVPDRFTGSGSGTDFTLTISSLQAEDVAVYFCQQYSSYPLTFGAGTKLEIKRTVAAPSVFIFPPSDEQLKSGTASVVCLLNNFYPREAKVQWKVDNALQSGNSQESVTEQDSKDSTYSLSSTLTLSKADYEKHKVYACEVTHQGLSSPVTKSFNRGEC
light 2: DIVMTQSPDSLAVSLGERATINCKASHDVGQSVAWYQQKPGQSPKLLIYWASTRHTGVPDRFTGSGSGTDFTLTISSLQAEDVAVYFCQQYSSYPLTFGAGTKLEIKRTVAAPSVFIFPPSDEQLKSGTASVVCLLNNFYPREAKVQWKVDNALQSGNSQESVTEQDSKDSTYSLSSTLTLSKADYEKHKVYACEVTHQGLSSPVTKSFNRGEC
notes: also called XENP44473 MSLN (90 nM) x CD28 (180 nM) 2+1 Fab2-scFv-Fc
Regarding B5, the equilibrium dissociation constant (Kd) with human CD28 worked out at 180 nM; with human mesothelin (MSLN) [3], 90 nM.
